Reference: US20160369011A1 (EISAI R AND D MANAGEMENT, published 2016)

B1: zu155D5-4 (antibody, human IgG1, kappa)
heavy: not shown
light: DIQMTQSPSTLSASVGDRVTITCQASQSISSYLAWYQQKPGKAPKLLIYYASTLASGVPSRFSGSGSGTEFTLTITGVQCDDAATYYCLGVYGYSFDDGIAFGGGTKVEIKRTVAAPSVFIFPPSDEQLKSGTASVVCLLNNFYPREAKVQWKVDNALQSGNSQESVTEQDSKDSTYSLSSTLTLSKADYEKHKVYACEVTHQGLSSPVTKSFNRGEC
notes: Humanized 155D5, human IgG1 kappa; Tested both protein A purified and decapped
B2: zu155D5-5 (antibody, human IgG1, kappa, V domains shown)
VH: QVQLVESGGGLVQPGGSLRLSCSASGFSLNSYAMIWVRQAPGKGLEYIGFITTGGTTYYADSVKGRFTISRDNSKNTLYLQMNSLRAEDTAVYYCARDRVKSYDDYGDLDAFEPWGQGTLVTVSS
VL: DIQMTQSPSTLSASVGDRVTITCQASQSISSYLAWYQQKPGKAPKLLIYYASTLASGVPSRFKGSGSGTEFTLTITGVQCDDAATYYCLGVYGYSFDDGIAFGGGTKVEIKR
notes: as for B1
B3: zu155D5-7 (antibody, human IgG1, kappa)
heavy: not shown
light: DIQMTQSPSTLSASVGDRVTITCQASQSISSYLAWYQQKPGKAPKLLIYYASTLASGVPSRFSGSGSGTEFTLTITGVQCDDAATYYCLGVYGYSFDDGIAFGGGTELEIKRTVAAPSVFIFPPSDEQLKSGTASVVCLLNNFYPREAKVQWKVDNALQSGNSQESVTEQDSKDSTYSLSSTLTLSKADYEKHKVYACEVTHQGLSSPVTKSFNRGEC
notes: as for B1
B4: zu155D5-3 (antibody, human IgG1, kappa, V domains shown)
VH: QVQLVESGGGLVQPGGSLRLSCSASGFSLNSYAMIWVRQAPGKGLEYIGFITTGGTTYYADSVKGRFTISRDNSKNTLYLQMNSLRAEDTAVYYCARDRVKSYDDYGDLDAFEPWGQGTLVTVSS
VL: DIQMTQSPSTLSASVGDRVTITCQASQSISSYLAWYQQKPGKAPKLLIYYASTLASGVPSRFSGSGSGTEFTLTISSLQCDDAATYYCLGVYGYSFDDGIAFGGGTKVEIKR
notes: Humanized 155D5, human IgG1 kappa; Tested both protein A purified and decapped; also called zu155D5-CXXA
B5: zu155D5-6 (antibody, human IgG1, kappa)
heavy: not shown
light: DIQMTQSPSTVSAAVGGTVTITCQASQSISSYLAWYQQKPGKAPKLLIYYASTLASGVPSRFSGSGSGTEFTLTITGVQCDDAATYYCLGVYGYSFDDGIAFGGGTKVEIKRTVAAPSVFIFPPSDEQLKSGTASVVCLLNNFYPREAKVQWKVDNALQSGNSQESVTEQDSKDSTYSLSSTLTLSKADYEKHKVYACEVTHQGLSSPVTKSFNRGEC
notes: as for B1
B6: zu155D5-1 (antibody, human IgG1, kappa, V domains shown)
VH: QVQLVESGGGLVQPGGSLRLSCSASGFSLNSYAMIWVRQAPGKGLEYIGFITTGGTTYYADSVKGRFTISRDNSKNTLYLQMNSLRAEDTAVYYCARDRVKSYDDYGDLDAFEPWGQGTLVTVSS
VL: DIQMTQSPSTLSASVGDRVTITCQASQSISSYLAWYQQKPGKAPKLLIYYASTLASGVPSRFSGSGSGTEFTLTISSLQCDDFATYYCLGVYGYSFDDGIAFGGGTKVEIKR
notes: Humanized 155D5, human IgG1 kappa; Tested both protein A purified (Cys80 capped) and decapped; also called zu155D5-CXXF; zu155D5-1 (huVK1-5)
B7: zu155D5-2 (antibody, human IgG1, kappa, V domains shown)
VH: QVQLVESGGGLVQPGGSLRLSCSASGFSLNSYAMIWVRQAPGKGLEYIGFITTGGTTYYADSVKGRFTISRDNSKNTLYLQMNSLRAEDTAVYYCARDRVKSYDDYGDLDAFEPWGQGTLVTVSS
VL: DIQMTQSPSTLSASVGDRVTITCQASQSISSYLAWYQQKPGKAPKLLIYYASTLASGVPSRFSGSGSGTEFTLTITGVQCDDFATYYCLGVYGYSFDDGIAFGGGTKVEIKR
notes: as for B1
B8: 155D5 (rabbit anti-CA9 mAb) (antibody, V domains shown)
VH: QSVKESGGRLVTPGTPLTLTCTVSGFSLNSYAMIWVRQAPGEGLEYIGFITTGGTTYYASWAKGRFTISRTSTTVDLKLTRPTTEDTATYFCARDRVKSYDDYGDLDAFEPWGPGTLVTISS
VL: ELVMTQTPSSVSAAVGGTVTINCQASQSISSYLAWYQQKPGQPPKLLIYYASTLASGVPSRFKGSGSGTEFTLTITGVQCDDAATYYCLGVYGYSFDDGIAFGGGTELEIK
notes: Parental rabbit IgG with rabbit constant regions (Cys80-Cys171 disulfide); also called rabbit 155D5 MAb
B9: xi155D5 Fab (Fab, V domains shown)
VH: QSVKESGGRLVTPGTPLTLTCTVSGFSLNSYAMIWVRQAPGEGLEYIGFITTGGTTYYASWAKGRFTISRTSTTVDLKLTRPTTEDTATYFCARDRVKSYDDYGDLDAFEPWGPGTLVTISS
VL: ELVMTQTPSSVSAAVGGTVTINCQASQSISSYLAWYQQKPGQPPKLLIYYASTLASGVPSRFKGSGSGTEFTLTITGVQCDDAATYYCLGVYGYSFDDGIAFGGGTELEIKR
notes: Made from xi155D5 by limited papain digestion and protein A removal of Fc; Fabs were fully decapped; not shown: human IgG1 CH1 and hinge up to the papain cleavage site

Key:
[1] = target: T1, human CA9 (carbonic anhydrase IX) (human, UniProt Q16790 38-414); assay: BIAcore T100, mAb captured on anti-human IgG, antigen as analyte, 1:1 model; mAb purified by protein A (ProA)
Description: (§1) Antibody concentrations were adjusted to generate 30-40 RU signal when bound to the antigen. […] The sensor surface was washed by injecting HBS-P buffer for 1 min at a flow rate of 50 μL/min. To record the antigen association to the captured mAb, a series of increasing concentrations of antigen was injected for 60 sec at a flow rate of 50 μL/min. The dissociation of antigen was monitored for 30 min at the same flow rate. The sensor surface was regenerated by injecting 3 M MgCl₂ for 1 min and then 30 sec at a flow rate of 30 μL/min. Sensograms were analyzed with Biacore T100 Evaluation Software using a 1:1 Langmuir binding model.
(§2) xi155D5 and the humanized variants were purified by standard protein A chromatography or the decapping method, and their affinity was analyzed using BIAcore (Table 13).

[2] = target: T1, human CA9 (carbonic anhydrase IX); assay: BIAcore, summary of Table 13; reference xi155D5; told of the group of humanized variants
Description: as §1, §2

[3] = target: T1, human CA9 (carbonic anhydrase IX); assay: BIAcore T100, mAb captured on anti-human IgG, antigen as analyte, 1:1 model; mAb purified by the decapping method (Decapped)
Description: as §1, §2

[4] = target: T1, human CA9 (carbonic anhydrase IX); assay: SPR (BIAcore), biotin-CA9 captured on CAP chip, antibody 0-50 nM as analyte
Description: To determine if chimerization, and therefore the loss of Cys80-Cys171 disulfide bond, results in structural perturbations leading to loss of antigen binding, the binding affinity of mAbs 155D5, xi155D5, 1-55-2, and xi1-55-2 by surface plasmon resonance was evaluated. Biotinylated ligand (biotin-hTEM1 for 1-55-2, biotin-CA9 for 155D5) was captured on a coated biotin CAP BIAcore chip (GE Healthcare, Piscataway, N.J.) using HBS-EP as running buffer. Final antigen capture levels were 130 RU and 280 RU, respectively, for biotin-TEM1 and biotin-CA9. Serial dilutions of antibody (120 μL of 0-50 nM) were passed over the ligand-coated chip. […] The chip surface was regenerated with 6 M GuHCl, 250 mM NaOH. Sensograms were double referenced and kinetic parameters were determined using BIAEvaluations software (ver. 4.1).

[5] = target: T1, human CA9 (carbonic anhydrase IX); assay: SPR, ligand CA9, flow cell Fc4
[6] = target: T1, human CA9 (carbonic anhydrase IX); assay: SPR, ligand CA9, flow cell Fc3

Binder	Kd [1] [nM]	koff [1] [s⁻¹]	kon [1] [M⁻¹ s⁻¹]	fold difference in KD against chimeric xi155D5 [2] [fold]	Kd [3] [nM]	koff [3] [s⁻¹]	kon [3] [M⁻¹ s⁻¹]	Kd [4] [nM]	koff [4] [s⁻¹]	kon [4] [M⁻¹ s⁻¹]	Kd [5] [nM]	koff [5] [s⁻¹]	kon [5] [M⁻¹ s⁻¹]	Kd [6] [nM]	koff [6] [s⁻¹]	kon [6] [M⁻¹ s⁻¹]
B1	0.664	0.000382	577000	< 2	0.59	0.000378	641000	–	–	–	–	–	–	–	–	–
B2	0.639	0.000373	587000	< 2	0.478	0.000273	572000	–	–	–	–	–	–	–	–	–
B3	0.534	0.000458	869000	< 2	0.68	0.000319	485000	–	–	–	–	–	–	–	–	–
B4	0.562	0.000401	727000	< 2	0.507	0.000351	726000	–	–	–	–	–	–	–	–	–
B5	0.533	0.000477	898000	< 2	0.568	0.000319	558000	–	–	–	–	–	–	–	–	–
B6	0.498	0.000495	1.01e+06	< 2	0.5	0.000355	770000	–	–	–	–	–	–	–	–	–
B7	0.569	0.000376	663000	< 2	0.589	0.00027	458000	–	–	–	–	–	–	–	–	–
B8	–	–	–	–	–	–	–	0.041	2.1e-05	510000	–	–	–	–	–	–
B9	–	–	–	–	–	–	–	–	–	–	0.0499	2.59e-05	519000	0.0383	2.19e-05	572000
